Data reported in publication PMC2896269 (The Journal of neuroscience : the official journal of the …, 2010).

Biological target: HA-neuroligin-1(+B) (UniProt Q62765 46-843)
Experiment: immunostaining of cells or tissue

Chain of HA-neuroligin-1(+B) (Q62765 46-843): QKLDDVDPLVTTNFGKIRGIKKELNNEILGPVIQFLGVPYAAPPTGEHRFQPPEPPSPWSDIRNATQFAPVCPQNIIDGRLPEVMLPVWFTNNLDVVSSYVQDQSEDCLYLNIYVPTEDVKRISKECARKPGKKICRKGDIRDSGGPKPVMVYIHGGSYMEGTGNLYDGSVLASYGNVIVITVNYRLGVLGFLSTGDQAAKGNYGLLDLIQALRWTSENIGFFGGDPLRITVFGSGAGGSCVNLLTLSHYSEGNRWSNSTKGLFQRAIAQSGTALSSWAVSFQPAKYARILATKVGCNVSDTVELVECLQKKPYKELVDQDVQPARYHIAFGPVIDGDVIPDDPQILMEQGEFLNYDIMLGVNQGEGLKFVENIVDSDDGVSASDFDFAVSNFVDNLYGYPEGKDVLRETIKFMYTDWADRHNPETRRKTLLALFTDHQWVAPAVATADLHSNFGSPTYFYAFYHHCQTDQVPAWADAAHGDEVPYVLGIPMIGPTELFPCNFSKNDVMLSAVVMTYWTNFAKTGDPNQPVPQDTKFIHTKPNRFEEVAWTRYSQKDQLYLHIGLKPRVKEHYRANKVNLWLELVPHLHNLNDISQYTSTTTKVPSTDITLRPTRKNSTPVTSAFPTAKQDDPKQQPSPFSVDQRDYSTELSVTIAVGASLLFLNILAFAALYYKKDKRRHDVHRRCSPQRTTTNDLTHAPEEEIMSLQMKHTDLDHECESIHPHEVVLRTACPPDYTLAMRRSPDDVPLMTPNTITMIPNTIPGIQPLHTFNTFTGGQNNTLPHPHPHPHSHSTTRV

Kd: 26.9 nM
B1: Nrx1β(+S4)-Fc (Fc fusion)
chain: not shown
